T1: APBA2_1, Q99767
T1 sequence (Q99767 563-664, limits assumed, looked up): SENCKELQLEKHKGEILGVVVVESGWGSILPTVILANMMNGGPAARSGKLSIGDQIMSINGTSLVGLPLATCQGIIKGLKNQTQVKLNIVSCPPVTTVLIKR

T2: APBA2_2, Q99767
T2 sequence (Q99767 654-744, limits assumed, looked up): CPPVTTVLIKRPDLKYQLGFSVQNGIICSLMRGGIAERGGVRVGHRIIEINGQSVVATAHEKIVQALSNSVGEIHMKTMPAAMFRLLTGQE

T3: ARHGAP21, Q5T5U3
T3 sequence (Q5T5U3 45-169, limits assumed, looked up): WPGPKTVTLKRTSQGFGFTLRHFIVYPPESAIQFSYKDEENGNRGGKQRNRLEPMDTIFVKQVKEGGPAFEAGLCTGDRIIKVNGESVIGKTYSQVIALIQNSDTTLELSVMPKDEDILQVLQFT

T4: DFNB31_2, Q9P202
T4 sequence (Q9P202 274-371, limits assumed, looked up): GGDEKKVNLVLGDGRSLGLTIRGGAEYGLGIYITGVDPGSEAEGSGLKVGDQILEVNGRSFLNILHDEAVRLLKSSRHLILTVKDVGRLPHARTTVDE

T5: DLG3_1, Q92796
T5 sequence (Q92796 125-227, limits assumed, looked up): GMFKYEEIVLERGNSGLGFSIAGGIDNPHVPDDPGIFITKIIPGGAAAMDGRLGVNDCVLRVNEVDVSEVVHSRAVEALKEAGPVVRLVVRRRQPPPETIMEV

T6: GRIP1_7, Q9Y3R0
T6 sequence (Q9Y3R0 999-1096, limits assumed, looked up): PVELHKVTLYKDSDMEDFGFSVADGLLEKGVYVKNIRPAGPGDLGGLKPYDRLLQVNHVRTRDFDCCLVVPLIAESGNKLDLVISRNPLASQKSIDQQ

T7: LRRC7, Q96NW7
T7 sequence (Q96NW7 1440-1537, limits assumed, looked up): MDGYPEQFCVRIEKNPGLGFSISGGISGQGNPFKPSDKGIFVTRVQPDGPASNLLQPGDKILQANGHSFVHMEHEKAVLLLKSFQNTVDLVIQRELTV

T8: NHERF3_1, Q5T2W1
T8 sequence (Q5T2W1 4-100, limits assumed, looked up): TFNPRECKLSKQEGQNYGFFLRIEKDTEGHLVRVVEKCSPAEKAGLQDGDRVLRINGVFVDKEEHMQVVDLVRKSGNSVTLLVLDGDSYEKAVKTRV

T9: NHERF3_3, Q5T2W1
T9 sequence (Q5T2W1 238-333, limits assumed, looked up): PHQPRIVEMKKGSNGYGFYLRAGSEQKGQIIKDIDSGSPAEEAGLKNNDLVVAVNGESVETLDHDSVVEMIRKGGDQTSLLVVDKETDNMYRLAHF

T10: NHERF3_4, Q5T2W1
T10 sequence (Q5T2W1 373-468, limits assumed, looked up): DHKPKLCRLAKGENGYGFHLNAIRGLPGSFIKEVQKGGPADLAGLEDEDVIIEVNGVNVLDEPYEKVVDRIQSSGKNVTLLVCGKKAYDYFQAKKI

T11: PTPN13_1, Q12923
T11 sequence (Q12923 1088-1188, limits assumed, looked up): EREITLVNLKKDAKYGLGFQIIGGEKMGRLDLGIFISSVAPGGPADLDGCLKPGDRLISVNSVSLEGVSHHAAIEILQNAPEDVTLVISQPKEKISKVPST

T12: SIPA1L2, Q9P2F8
T12 sequence (Q9P2F8 945-1036, limits assumed, looked up): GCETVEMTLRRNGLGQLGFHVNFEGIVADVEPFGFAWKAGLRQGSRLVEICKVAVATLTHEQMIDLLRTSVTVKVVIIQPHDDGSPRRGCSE


What was measured:
Assay in all cases: holdup assay
Design in all cases: key: below the threshold = too weak to quantify, mostly under pKd 3.1 to 4
Settings in all cases: plain residues with an end cap or a label only (N-terminal biotin on a linker: ado-ado)
APBA2_1, Q99767 = biological target: T1, APBA2_1, Q99767
APBA2_2, Q99767 = biological target: T2, APBA2_2, Q99767
ARHGAP21, Q5T5U3 = biological target: T3, ARHGAP21, Q5T5U3
DFNB31_2, Q9P202 = biological target: T4, DFNB31_2, Q9P202
DLG1_2, Q12959 = biological target: DLG1_2, Q12959
DLG1_3, Q12959 = biological target: DLG1_3, Q12959
DLG2_2, Q15700 = biological target: DLG2_2, Q15700
DLG3_1, Q92796 = biological target: T5, DLG3_1, Q92796
FRMPD2_1, Q68DX3 = biological target: FRMPD2_1, Q68DX3
FRMPD4, Q14CM0 = biological target: FRMPD4, Q14CM0
GIPC2, Q8TF65 = biological target: GIPC2, Q8TF65
GRID2IP_1, A4D2P6 = biological target: GRID2IP_1, A4D2P6
GRIP1_7, Q9Y3R0 = biological target: T6, GRIP1_7, Q9Y3R0
GRIP2_7, Q9C0E4 = biological target: GRIP2_7, Q9C0E4
HTRA2, O43464 = biological target: HTRA2, O43464
IL16_4, Q14005 = biological target: IL16_4, Q14005
Inadl_2, Q8NI35 = biological target: Inadl_2, Q8NI35
Inadl_5, Q8NI35 = biological target: Inadl_5, Q8NI35
LRRC7, Q96NW7 = biological target: T7, LRRC7, Q96NW7
MAGI2_2, Q86UL8 = biological target: MAGI2_2, Q86UL8
MAGI2_3, Q86UL8 = biological target: MAGI2_3, Q86UL8
NHERF3_1, Q5T2W1 = biological target: T8, NHERF3_1, Q5T2W1
NHERF3_3, Q5T2W1 = biological target: T9, NHERF3_3, Q5T2W1
NHERF3_4, Q5T2W1 = biological target: T10, NHERF3_4, Q5T2W1
PTPN13_1, Q12923 = biological target: T11, PTPN13_1, Q12923
SIPA1L2, Q9P2F8 = biological target: T12, SIPA1L2, Q9P2F8

Chain of Inadl_2, Q8NI35 (Q8NI35 238-335): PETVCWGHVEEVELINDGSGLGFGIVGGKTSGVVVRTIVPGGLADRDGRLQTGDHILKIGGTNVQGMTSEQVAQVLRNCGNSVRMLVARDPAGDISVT
Chain of FRMPD2_1, Q68DX3 (Q68DX3 770-861): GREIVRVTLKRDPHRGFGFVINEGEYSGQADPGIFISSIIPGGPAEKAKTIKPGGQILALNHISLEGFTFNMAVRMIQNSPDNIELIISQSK
Chain of IL16_4, Q14005 (Q14005 1229-1329): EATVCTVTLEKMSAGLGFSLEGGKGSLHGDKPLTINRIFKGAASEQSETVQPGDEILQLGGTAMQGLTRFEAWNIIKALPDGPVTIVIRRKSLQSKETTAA
Chain of DLG1_3, Q12959 (Q12959 457-571): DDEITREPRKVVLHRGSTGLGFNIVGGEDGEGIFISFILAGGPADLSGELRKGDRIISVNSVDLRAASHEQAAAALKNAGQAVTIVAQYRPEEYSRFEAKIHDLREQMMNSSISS
Chain of MAGI2_2, Q86UL8 (Q86UL8 410-522): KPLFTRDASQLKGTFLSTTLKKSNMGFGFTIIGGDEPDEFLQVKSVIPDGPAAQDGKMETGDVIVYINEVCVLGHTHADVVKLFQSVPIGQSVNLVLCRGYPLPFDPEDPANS
Chain of GRID2IP_1, A4D2P6 (A4D2P6 1-87): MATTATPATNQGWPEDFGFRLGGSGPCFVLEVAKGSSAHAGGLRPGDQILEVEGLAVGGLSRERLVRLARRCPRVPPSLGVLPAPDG
Chain of MAGI2_3, Q86UL8 (Q86UL8 600-682): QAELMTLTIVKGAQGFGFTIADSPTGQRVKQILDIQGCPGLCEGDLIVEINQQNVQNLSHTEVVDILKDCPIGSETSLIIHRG
Chain of FRMPD4, Q14CM0 (Q14CM0 67-160): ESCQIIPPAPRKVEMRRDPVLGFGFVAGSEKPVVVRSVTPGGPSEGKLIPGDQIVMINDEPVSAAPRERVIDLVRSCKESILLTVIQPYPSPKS
Chain of DLG2_2, Q15700 (Q15700 189-283): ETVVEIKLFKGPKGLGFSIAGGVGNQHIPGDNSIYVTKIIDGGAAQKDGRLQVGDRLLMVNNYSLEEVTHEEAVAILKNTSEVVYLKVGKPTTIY
Chain of DLG1_2, Q12959 (Q12959 314-412): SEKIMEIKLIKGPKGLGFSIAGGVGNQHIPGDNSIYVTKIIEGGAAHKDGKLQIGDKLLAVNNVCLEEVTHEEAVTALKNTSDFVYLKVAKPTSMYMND
Chain of GRIP2_7, Q9C0E4 (Q9C0E4 934-1023): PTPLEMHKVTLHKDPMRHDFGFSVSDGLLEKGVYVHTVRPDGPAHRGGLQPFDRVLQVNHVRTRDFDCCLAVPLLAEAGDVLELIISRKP
Chain of GIPC2, Q8TF65 (Q8TF65 112-203): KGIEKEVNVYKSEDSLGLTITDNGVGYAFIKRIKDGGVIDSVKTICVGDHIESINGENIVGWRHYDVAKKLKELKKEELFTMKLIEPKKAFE
Chain of HTRA2, O43464 (O43464 355-458): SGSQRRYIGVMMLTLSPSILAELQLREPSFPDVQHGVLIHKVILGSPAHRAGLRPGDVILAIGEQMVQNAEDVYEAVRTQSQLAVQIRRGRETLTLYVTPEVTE
Chain of Inadl_5, Q8NI35 (Q8NI35 673-780): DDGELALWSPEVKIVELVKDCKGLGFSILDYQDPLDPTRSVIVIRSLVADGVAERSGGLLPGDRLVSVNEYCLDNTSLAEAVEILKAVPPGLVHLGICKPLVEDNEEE

Binder	pKd (APBA2_1, Q99767)	pKd (APBA2_2, Q99767)	pKd (ARHGAP21, Q5T5U3)	pKd (DFNB31_2, Q9P202)	pKd (DLG1_2, Q12959)	pKd (DLG1_3, Q12959)	pKd (DLG2_2, Q15700)	pKd (DLG3_1, Q92796)	pKd (FRMPD2_1, Q68DX3)	pKd (FRMPD4, Q14CM0)	pKd (GIPC2, Q8TF65)	pKd (GRID2IP_1, A4D2P6)	pKd (GRIP1_7, Q9Y3R0)	pKd (GRIP2_7, Q9C0E4)	pKd (HTRA2, O43464)	pKd (IL16_4, Q14005)	pKd (Inadl_2, Q8NI35)	pKd (Inadl_5, Q8NI35)	pKd (LRRC7, Q96NW7)	pKd (MAGI2_2, Q86UL8)	further results
LVEEEEPMNL [HDAC7, Q8WUI4]	below the threshold	below the threshold	3.77	below the threshold	below the threshold	below the threshold	below the threshold	below the threshold	below the threshold	3.86	below the threshold	below the threshold	below the threshold	below the threshold	below the threshold	below the threshold	below the threshold	below the threshold	below the threshold	below the threshold	pKd (MAGI2_3, Q86UL8): below the threshold; pKd (NHERF3_1, Q5T2W1): below the threshold; pKd (NHERF3_3, Q5T2W1): below the threshold; pKd (NHERF3_4, Q5T2W1): below the threshold; pKd (PTPN13_1, Q12923): below the threshold; pKd (SIPA1L2, Q9P2F8): below the threshold
ADEMICITTL [CACNA1D, Q01668]	below the threshold	below the threshold	3.67	below the threshold	4.06	3.78	3.81	3.56	below the threshold	3.97	below the threshold	below the threshold	below the threshold	3.62	3.83	below the threshold	below the threshold	below the threshold	3.8	below the threshold	pKd (MAGI2_3, Q86UL8): 3.56; pKd (NHERF3_1, Q5T2W1): 4.22; pKd (NHERF3_3, Q5T2W1): below the threshold; pKd (NHERF3_4, Q5T2W1): 4.19; pKd (PTPN13_1, Q12923): below the threshold; pKd (SIPA1L2, Q9P2F8): below the threshold

More lines, main results first:

pKd (APBA2_1, Q99767)	pKd (APBA2_2, Q99767)	pKd (ARHGAP21, Q5T5U3)	pKd (DFNB31_2, Q9P202)	pKd (DLG1_2, Q12959)	pKd (DLG1_3, Q12959)	pKd (DLG2_2, Q15700)	pKd (DLG3_1, Q92796)	pKd (FRMPD2_1, Q68DX3)	pKd (FRMPD4, Q14CM0)	pKd (GIPC2, Q8TF65)	pKd (GRID2IP_1, A4D2P6)	pKd (GRIP1_7, Q9Y3R0)	pKd (GRIP2_7, Q9C0E4)	pKd (HTRA2, O43464)	pKd (IL16_4, Q14005)	pKd (Inadl_2, Q8NI35)	pKd (Inadl_5, Q8NI35)	pKd (LRRC7, Q96NW7)	pKd (MAGI2_2, Q86UL8)	Binder	further results
below the threshold	below the threshold	below the threshold	below the threshold	below the threshold	below the threshold	below the threshold	below the threshold	below the threshold	below the threshold	below the threshold	below the threshold	below the threshold	below the threshold	below the threshold	below the threshold	below the threshold	below the threshold	below the threshold	below the threshold	MLPANYVEAI [NEB, P20929]	pKd (MAGI2_3, Q86UL8): below the threshold; pKd (NHERF3_1, Q5T2W1): below the threshold; pKd (NHERF3_3, Q5T2W1): below the threshold; pKd (NHERF3_4, Q5T2W1): below the threshold; pKd (PTPN13_1, Q12923): below the threshold; pKd (SIPA1L2, Q9P2F8): below the threshold
below the threshold	below the threshold	4.05	3.71	5.03	4.18	4.67	3.81	below the threshold	3.57	3.68	below the threshold	below the threshold	below the threshold	below the threshold	below the threshold	below the threshold	below the threshold	3.53	4.25	TKDKVQETQI [LRRC4, Q9HBW1]	pKd (MAGI2_3, Q86UL8): 3.96; pKd (NHERF3_1, Q5T2W1): 5.21; pKd (NHERF3_3, Q5T2W1): below the threshold; pKd (NHERF3_4, Q5T2W1): 3.57; pKd (PTPN13_1, Q12923): below the threshold; pKd (SIPA1L2, Q9P2F8): below the threshold

Reference: publication PMC9482650, “Quantitative fragmentomics allow affinity mapping of interactomes” (Nature Communications, 2022)
